Source: patent US12433934B2, “Methods and compositions for preventing and treating atherosclerosis and related diseases” (Shanghai Puyou Biomedical Co., Ltd., priority 2018, dated 2025)
“Also recorded” adds a separate entry of the source.

Columns and labels:
[1] = test system: ApoE−/− mice; assay: Atherosclerotic plaques of the aorta (en face oil red O staining) in high-fat diet ApoE−/− mice; type: in vivo; conditions: ATV 40 mg/kg orally once a day, 13 weeks, high-fat diet
Experimental: FIGS. 15-16. The sDSS1 protein inhibits the formation of atherosclerotic plaques in ApoE−/− mice. […] At the end of the injection, the aorta was dissected for oil red O staining, and the area of plaques was calculated.
Experimental animals: ApoE−/− mice, 8-week-old, male, were purchased from Nanjing Biomedical Research Institute of Nanjing University. The experimental animals were housed in an animal room for one week before the experiment.
Experimental method: ApoE−/− mice were fed with high-fat diet containing 0.25% cholesterol starting from the age of 9 weeks. From the 10th week of high-fat diet feeding, the mice were randomly divided into three groups according to the total cholesterol level, with 10 mice in each group. […] At the 22nd week of high-fat diet feeding, that is, the 13th week of administration, the animals were executed and dissected, and the whole aorta was separated. The separated aorta was stained with en face oil red O to evaluate the formation of atherosclerotic plaques.

[2] = molecular target: T1, oxLDL (Homo sapiens, UniProt P04114); assay: Co-incubation with oxLDL, SDS-PAGE separation, Coomassie brilliant blue staining; type: binding; conditions: phosphate buffer pH 7.2
T1 construct: purchased Solarbio H7980
T1 sequence (P04114 28-4563): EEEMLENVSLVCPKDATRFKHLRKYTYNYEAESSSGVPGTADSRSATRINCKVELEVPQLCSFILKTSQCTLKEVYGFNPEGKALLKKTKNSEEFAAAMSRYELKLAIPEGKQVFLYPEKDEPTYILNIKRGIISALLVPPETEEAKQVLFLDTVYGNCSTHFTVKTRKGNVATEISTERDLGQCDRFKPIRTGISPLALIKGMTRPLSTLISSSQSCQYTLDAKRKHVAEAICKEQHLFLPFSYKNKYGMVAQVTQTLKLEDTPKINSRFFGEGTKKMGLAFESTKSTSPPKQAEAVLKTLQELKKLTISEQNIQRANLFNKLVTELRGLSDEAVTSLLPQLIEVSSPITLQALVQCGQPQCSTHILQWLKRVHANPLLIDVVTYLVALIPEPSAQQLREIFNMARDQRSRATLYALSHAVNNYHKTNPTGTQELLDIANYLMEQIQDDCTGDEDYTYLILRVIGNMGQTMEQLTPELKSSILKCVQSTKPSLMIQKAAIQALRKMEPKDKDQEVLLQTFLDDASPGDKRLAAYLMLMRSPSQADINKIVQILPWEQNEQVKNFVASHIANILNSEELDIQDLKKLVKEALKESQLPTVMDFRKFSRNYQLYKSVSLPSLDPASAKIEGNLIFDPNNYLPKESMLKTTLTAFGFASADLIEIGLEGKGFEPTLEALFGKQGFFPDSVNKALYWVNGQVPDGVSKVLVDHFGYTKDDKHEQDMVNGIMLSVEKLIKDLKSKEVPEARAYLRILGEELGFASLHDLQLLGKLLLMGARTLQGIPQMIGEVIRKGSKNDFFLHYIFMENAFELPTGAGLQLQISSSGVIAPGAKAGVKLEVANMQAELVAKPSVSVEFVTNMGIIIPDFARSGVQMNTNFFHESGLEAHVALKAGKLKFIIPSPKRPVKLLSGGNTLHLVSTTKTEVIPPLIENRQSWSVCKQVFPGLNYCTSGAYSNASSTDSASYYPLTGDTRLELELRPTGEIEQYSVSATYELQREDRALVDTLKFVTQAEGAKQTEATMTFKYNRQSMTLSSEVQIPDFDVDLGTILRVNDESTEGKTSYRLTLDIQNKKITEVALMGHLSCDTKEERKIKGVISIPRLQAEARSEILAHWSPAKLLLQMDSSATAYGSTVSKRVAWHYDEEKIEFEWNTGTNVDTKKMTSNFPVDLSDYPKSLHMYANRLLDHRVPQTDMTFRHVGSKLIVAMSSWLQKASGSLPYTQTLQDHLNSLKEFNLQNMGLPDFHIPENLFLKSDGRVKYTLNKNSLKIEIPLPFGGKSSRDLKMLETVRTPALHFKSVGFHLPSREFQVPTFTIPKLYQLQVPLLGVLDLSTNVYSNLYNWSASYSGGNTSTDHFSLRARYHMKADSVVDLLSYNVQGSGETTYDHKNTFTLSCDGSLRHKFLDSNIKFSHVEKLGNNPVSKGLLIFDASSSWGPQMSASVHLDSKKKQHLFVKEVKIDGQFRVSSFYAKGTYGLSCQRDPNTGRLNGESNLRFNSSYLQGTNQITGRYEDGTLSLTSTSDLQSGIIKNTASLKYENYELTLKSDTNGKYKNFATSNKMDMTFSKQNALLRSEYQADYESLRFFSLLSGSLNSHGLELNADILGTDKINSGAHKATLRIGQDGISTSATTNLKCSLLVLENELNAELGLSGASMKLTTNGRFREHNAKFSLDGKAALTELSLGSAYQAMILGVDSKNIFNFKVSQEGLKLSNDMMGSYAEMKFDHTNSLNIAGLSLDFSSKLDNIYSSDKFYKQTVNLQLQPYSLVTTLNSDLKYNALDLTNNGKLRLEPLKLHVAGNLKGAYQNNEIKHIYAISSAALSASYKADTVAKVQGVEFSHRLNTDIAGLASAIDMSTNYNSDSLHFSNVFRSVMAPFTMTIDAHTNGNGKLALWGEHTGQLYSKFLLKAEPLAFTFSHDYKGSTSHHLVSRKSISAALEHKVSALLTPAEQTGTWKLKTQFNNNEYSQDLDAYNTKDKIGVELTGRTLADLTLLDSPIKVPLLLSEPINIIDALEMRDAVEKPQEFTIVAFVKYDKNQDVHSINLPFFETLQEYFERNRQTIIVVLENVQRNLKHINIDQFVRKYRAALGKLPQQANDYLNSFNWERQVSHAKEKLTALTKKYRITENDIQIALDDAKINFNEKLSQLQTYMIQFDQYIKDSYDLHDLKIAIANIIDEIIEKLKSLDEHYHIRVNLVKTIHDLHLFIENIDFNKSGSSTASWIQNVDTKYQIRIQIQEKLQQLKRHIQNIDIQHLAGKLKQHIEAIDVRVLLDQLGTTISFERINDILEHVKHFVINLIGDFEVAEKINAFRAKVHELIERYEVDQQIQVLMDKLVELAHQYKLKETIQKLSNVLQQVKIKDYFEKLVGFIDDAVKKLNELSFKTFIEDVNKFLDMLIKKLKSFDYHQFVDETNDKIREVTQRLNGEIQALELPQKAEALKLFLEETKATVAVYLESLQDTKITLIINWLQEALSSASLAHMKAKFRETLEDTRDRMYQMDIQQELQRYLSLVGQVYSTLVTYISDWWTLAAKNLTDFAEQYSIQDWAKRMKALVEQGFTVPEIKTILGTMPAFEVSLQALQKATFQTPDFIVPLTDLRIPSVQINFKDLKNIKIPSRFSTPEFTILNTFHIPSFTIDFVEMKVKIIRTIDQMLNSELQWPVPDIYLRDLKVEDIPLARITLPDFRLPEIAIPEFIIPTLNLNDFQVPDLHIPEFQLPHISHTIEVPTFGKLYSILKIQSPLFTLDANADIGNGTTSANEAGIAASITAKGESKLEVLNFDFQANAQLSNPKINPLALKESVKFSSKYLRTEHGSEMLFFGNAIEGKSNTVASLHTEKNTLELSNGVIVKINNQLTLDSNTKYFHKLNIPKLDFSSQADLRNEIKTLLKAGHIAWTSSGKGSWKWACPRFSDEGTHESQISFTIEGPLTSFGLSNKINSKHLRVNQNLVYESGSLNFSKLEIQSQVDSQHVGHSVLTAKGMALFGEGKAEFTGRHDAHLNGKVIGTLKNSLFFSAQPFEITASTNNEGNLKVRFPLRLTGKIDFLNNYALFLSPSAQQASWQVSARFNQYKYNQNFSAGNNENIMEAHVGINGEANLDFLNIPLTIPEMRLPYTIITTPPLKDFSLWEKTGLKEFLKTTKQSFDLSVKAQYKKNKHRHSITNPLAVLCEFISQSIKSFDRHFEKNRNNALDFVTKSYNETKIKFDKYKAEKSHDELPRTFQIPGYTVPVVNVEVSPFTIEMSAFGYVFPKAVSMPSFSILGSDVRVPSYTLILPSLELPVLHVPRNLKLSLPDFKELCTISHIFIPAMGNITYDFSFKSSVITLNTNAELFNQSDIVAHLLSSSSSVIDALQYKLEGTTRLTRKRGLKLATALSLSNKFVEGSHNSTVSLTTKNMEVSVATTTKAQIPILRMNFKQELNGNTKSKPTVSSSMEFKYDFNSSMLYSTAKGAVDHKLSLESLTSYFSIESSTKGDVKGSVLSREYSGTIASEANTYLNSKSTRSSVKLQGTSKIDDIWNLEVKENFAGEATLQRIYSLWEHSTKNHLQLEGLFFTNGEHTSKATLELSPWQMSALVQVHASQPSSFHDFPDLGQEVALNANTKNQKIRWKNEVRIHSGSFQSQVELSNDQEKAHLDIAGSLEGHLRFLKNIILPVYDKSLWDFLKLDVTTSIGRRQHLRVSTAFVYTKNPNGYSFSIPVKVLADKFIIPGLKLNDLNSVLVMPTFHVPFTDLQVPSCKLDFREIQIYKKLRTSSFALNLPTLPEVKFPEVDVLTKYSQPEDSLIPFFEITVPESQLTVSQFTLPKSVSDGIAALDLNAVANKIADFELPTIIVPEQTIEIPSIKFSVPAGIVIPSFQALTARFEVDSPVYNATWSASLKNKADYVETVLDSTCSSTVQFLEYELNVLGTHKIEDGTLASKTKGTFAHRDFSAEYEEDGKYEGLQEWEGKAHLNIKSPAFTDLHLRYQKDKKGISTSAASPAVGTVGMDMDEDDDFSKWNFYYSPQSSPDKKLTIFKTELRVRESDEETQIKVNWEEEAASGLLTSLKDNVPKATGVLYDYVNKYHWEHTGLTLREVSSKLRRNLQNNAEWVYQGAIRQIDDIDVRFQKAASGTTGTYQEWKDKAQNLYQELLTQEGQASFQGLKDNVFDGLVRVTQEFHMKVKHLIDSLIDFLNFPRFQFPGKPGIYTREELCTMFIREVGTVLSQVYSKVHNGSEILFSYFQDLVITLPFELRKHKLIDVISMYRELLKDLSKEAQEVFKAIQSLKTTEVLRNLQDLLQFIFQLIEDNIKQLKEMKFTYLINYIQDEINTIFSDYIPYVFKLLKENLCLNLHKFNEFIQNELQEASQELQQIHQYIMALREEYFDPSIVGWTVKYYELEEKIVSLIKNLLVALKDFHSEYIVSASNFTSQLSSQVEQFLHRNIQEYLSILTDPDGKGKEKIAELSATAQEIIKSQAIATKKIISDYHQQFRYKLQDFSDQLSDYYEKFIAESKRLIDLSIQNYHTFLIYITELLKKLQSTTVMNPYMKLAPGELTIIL
Experimental: Experimental materials: sDSS1 protein, sDSS1 mutant protein 1 (sDSS1-M1, SEQ ID NO: 15), sDSS1 mutant protein 2 (sDSS1-M2, SEQ ID NO: 16), oxidized low density lipoprotein (oxLDL) (Solarbio, Article No.: H7980); low density lipoprotein (LDL) (Solarbio, Article No.: H7960).
Experimental method: 2 μg of oxLDL or LDL was mixed with 6 μg of sDSS1 protein or 10 μg of sDSS1 protein in a 1.5 ml EP tube in the presence of 20 mM sodium acetate/acetic acid buffer (pH 4.5) or 20 mM phosphate buffer (pH 7.2) respectively, and incubated at 37° C. for 12 h. A loading buffer was added in the incubated product and evenly mixed, and the obtained mixture was denatured at 100° C. for 10 min to prepare a loading sample. The resulting sample was subjected to electrophoretic separation via polyacrylamide gel electrophoresis (SDS-PAGE). After separation, the SDS-PAGE gel was stained with Coomassie brilliant blue to display protein strips. The sDSS1-M1 or sDSS1-M2 protein was respectively mixed and incubated with oxLDL, and treated in the same way. 15 μL of the sample was used for SDS-PAGE electrophoresis separation.

| Molecule | Area of atherosclerotic plaques (en face oil red O) vs model group [1] | Interaction with oxLDL (complex on SDS-PAGE gel) [2] |
| --- | --- | --- |
| CC(C)c1c(C(=O)Nc2ccccc2)c(-c2ccccc2)c(-c2ccc(F)cc2)n1CC[C@@H](O)C[C@@H](O)CC(=O)O [ATV, Atorvastatin, reference compound] | significantly reduced | – |
| sDSS1-M1: sDSS1 mutant protein 1, SEQ ID NO: 15 (protein) MSEKKQPVDLGLLEEDDEFEEFPAEDWAGLDEDEDAHVWEDNWDDDNVEDDFSNQLRATVLLMILVAETPYGAYVLHQKGRMASAFLAA | – | can also interact with oxLDL to form complexes; also recorded: interacted with the oxLDL protein |
| sDSS1-M2: sDSS1 mutant protein 2, SEQ ID NO: 16 (protein) MSEKKQPVDLGLLEEDDEFEEFPAEDWAGLDEDEDAHVWEDNWDDDNVEDDFSNQLRATVLLMILVVETPYGVYVLHQKGRMVSAFLVV | – | can also interact with oxLDL to form complexes; also recorded: interacts with the oxLDL protein |
